Data taken from publication PMC9007595 (Molecular microbiology, 2020).

Key:
Test in all cases: cross-linking
[1] = biological target: Mycobacterium tuberculosis HtpG-His6 with para-benzoyl-phenylalanine at F10 (Mycobacterium tuberculosis) (UniProt P9WMJ7)
[2] = biological target: Mycobacterium tuberculosis HtpG-His6 with para-benzoyl-phenylalanine at F635 (Mycobacterium tuberculosis) (UniProt P9WMJ7)
[3] = biological target: Mycobacterium tuberculosis HtpG-His6 with para-benzoyl-phenylalanine at W197 (Mycobacterium tuberculosis) (UniProt P9WMJ7)

## Mycobacterium tuberculosis HtpG-His6 with para-benzoyl-phenylalanine at F10 (from UniProt P9WMJ7 1-647) (natural protein)
[1]
  stoichiometry N: 2

## Mycobacterium tuberculosis HtpG-His6 with para-benzoyl-phenylalanine at F635 (from UniProt P9WMJ7 1-647) (natural protein)
[2]
  stoichiometry N: 2

## Mycobacterium tuberculosis HtpG-His6 with para-benzoyl-phenylalanine at W197 (from UniProt P9WMJ7 1-647) (natural protein)
[3]
  stoichiometry N: 2
